Assay results: US20160053274

Legend:
Experiment in all cases: cell_activity
[1] = tested on: TALENbar86 monomer 2 (artificial); conditions: tobacco protoplasts, as pair with monomer 1, 13 nt spacer, foreign DNA pTIB235; printed half-site differs from full site as printed (AGCACGGTCAACTTCCCT)
[2] = tested on: TALENbar334 monomer 1 (artificial); conditions: tobacco protoplasts, as pair with monomer 2, 12 nt spacer, foreign DNA pTIB235; 94.35 with pTCV224, 94.09 with pTCV225
[3] = tested on: TALENbar86 monomer 1 (artificial); conditions: tobacco protoplasts, as pair with monomer 2, 13 nt spacer, foreign DNA pTIB235; 19.6 with pTCV224, 25.6 with pTCV225
[4] = tested on: bar meganuclease (cleaving at bar position 479) (artificial); conditions: tobacco protoplasts, targeted insertion with repair DNA pTCV225 (3/164 calli)
[5] = tested on: TALENbar334 monomer 2 (artificial); conditions: tobacco protoplasts, as pair with monomer 1, 12 nt spacer, foreign DNA pTIB235; 94.35 with pTCV224, 94.09 with pTCV225

ACGGAAGTTGACCGTGCT (double strand) [bar86 half-site 2]
activity [1]: 6.25 % mutation

CCACGCTCTACACCCACC (double strand) [bar334 half-site 1]
activity [2]: 76 % mutation

CTGCACCATCGTCAACCA (double strand) [bar86 half-site 1]
activity [3]: 6.25 % mutation

GGGAACTGGCATGACGTGGGTTTC (double strand) [bar meganuclease site]
activity [4]: 1.8 % TSI

TGAAGCCCTGTGCCTCCA (double strand) [bar334 half-site 2]
activity [5]: 76 % mutation
